According to PMC5437253:

Columns and labels:
Assay in all cases: SPR; Biacore 3000; antibodies immobilised on a CM5 chip by amine coupling at ~3000 RU; huFcRn flowed at 5 μl/min for 50 min, 19.5 nM to 10 μM, in PBS pH 5.8 with 5 mM EDTA and 0.05% Tween 20; steady-state fit
[1] = target: K248AzK (human)
[2] = target: K248AzK-mPEG (human)
[3] = target: K288AzK (human)
[4] = target: K288AzK-CR110 (human)
[5] = target: L309AzK (human)
[6] = target: L309AzK-CR110 (human)
[7] = target: L309AzK-mPEG (human)
[8] = target: M252AzK (human)
[9] = target: M252AzK-CR110 (human)
[10] = target: M252AzK-mPEG (human)
[11] = target: N286AzK-mPEG (human)
[12] = target: N384AzK (human)
[13] = target: N384AzK-CR110 (human)
[14] = target: N384AzK-mPEG (human)
[15] = target: N434AzK (human)
[16] = target: Q311AzK (human)
[17] = target: Q311AzK-CR110 (human)
[18] = target: Q311AzK-mPEG (human)
[19] = target: S254AzK (human)
[20] = target: S254AzK-CR110 (human)
[21] = target: wild-type antibody (human)

Recombinant human FcRn (from UniProt P55899 24-297; P61769 21-119) (receptor)
Kd [1]: 378 nM | Kd [2]: 907 nM | Kd [3]: 418 nM | Kd [4]: 558 nM | Kd [5]: 437 nM | Kd [6]: 2040 nM | Kd [7]: 3270 nM | Kd [8]: 249 nM | Kd [9]: 2060 nM | Kd [10]: 3580 nM | Kd [11]: 2830 nM | Kd [12]: 565 nM | Kd [13]: 702 nM | Kd [14]: 756 nM | Kd [15]: 734 nM | Kd [16]: 323 nM | Kd [17]: 2050 nM | Kd [18]: 3870 nM | Kd [19]: 465 nM | Kd [20]: 2870 nM | Kd [21]: 538 nM
